Measurements from patent US20240270861A1 (DRAGONFLY THERAPEUTICS, published 2024).

Tests used:
[1] = target: T1, hBAFF-R-hFc-His fusion protein (human, UniProt Q96RJ3 1-78, biotinylated where used as yeast display probe); assay: yeast display flow cytometry after challenge: 100 pM hBAFFR-Fc biotin for 1hr at RT, then 1 mM nonbiotinylated hBAFFR-Fc (as printed on the sheet)
T1 construct: also called hBAFFR-Fc; biotinylated hBAFF-R-hFc-His

cynomolgus CD16 = target: T2, cynomolgus CD16 (cynomolgus monkey, UniProt Q8SPW2 17-208); assay: SPR, kinetics fit
T2 construct: also called cyno CD16; FcγRIII (cynomolgus)

human CD16a V158 = target: T3, human CD16a V158 (human, UniProt P08637 17-208); assay: SPR, qualitative (Table 40 not given)
T3 construct: Recombinant receptor in SPR; in the cytotoxicity assays expressed on KHYG-1-CD16aV cells; also called hCD16aV; hCD16a V158
T3 sequence (P08637 17-208 F176V limits assumed): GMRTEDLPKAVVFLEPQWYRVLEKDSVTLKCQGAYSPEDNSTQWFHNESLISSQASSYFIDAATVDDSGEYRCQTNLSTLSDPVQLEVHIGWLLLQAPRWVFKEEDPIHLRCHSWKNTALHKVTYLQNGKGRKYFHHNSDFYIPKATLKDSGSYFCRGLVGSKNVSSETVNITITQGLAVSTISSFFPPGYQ

T2 sequence (Q8SPW2 17-208 limits assumed): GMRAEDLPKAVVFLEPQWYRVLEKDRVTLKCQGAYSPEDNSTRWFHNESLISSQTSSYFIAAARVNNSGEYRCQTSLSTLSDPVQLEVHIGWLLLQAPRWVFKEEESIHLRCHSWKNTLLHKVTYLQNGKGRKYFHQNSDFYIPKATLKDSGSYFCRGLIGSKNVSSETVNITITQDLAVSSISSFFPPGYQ

| Binder | Iana (drawn gate) [1] | further results |
| --- | --- | --- |
| AB1081scFv displayed on yeast (scFv, V domains shown, scFv on yeast) VH: EVQLVQSGGGVVQPGRSLRLSCAASGFAFSSYGMHWVRQAPGKCLEWVAVIWYDESNKYYGDSVKGRFTISRDNSRNTLYLQMNSLRDEDTAVYYCARRFTNLRGWIIEDYGLDVWGQGTTVTVSS VL: not shown | 27.2 % (unit not printed) |  |
| AB1424/AB1612 F3′ TriNKET (bispecific antibody, human IgG1, kappa, Chain S anti-BAFF-R scFv-CH2-CH3, Chain H and Chain L anti-NKG2D A49MI Fab; also called AB1612-002) not shown heavy: EVQLVESGGGLVKPGGSLRLSCAASGFTFSSYSMNWVRQAPGKGLEWVSSISSSSSYIYYADSVKGRFTISRDNAKNSLYLQMNSLRAEDTAVYYCARGAPIGAAAGWFDPWGQGTLVTVSSASTKGPSVFPLAPSSKSTSGGTAALGCLVKDYFPEPVTVSWNSGALTSGVHTFPAVLQSSGLYSLSSVVTVPSSSLGTQTYICNVNHKPSNTKVDKKVEPKSCDKTHTCPPCPAPELLGGPSVFLFPPKPKDTLMISRTPEVTCVVVDVSHEDPEVKFNWYVDGVEVHNAKTKPREEQYNSTYRVVSVLTVLHQDWLNGKEYKCKVSNKALPAPIEKTISKAKGQPREPQVCTLPPSRDELTENQVSLTCLVKGFYPSDIAVEWESNGQPENNYKTTPPVLDSDGSFFLYSWLTVDKSRWQQGNVFSCSVMHEALHNHYTQKSLSLSPG light: DIQMTQSPSSVSASVGDRVTITCRASQGISSWLAWYQQKPGKAPKLLIYAASSLQSGVPSRFSGSGSGTDFTLTISSLQPEDFATYYCQQGVSFPRTFGGGTKVEIKRTVAAPSVFIFPPSDEQLKSGTASVVCLLNNFYPREAKVQWKVDNALQSGNSQESVTEQDSKDSTYSLSSTLTLSKADYEKHKVYACEVTHQGLSSPVTKSFNRGEC |  | Kd (cynomolgus CD16): 232 nM |
| AB1424/AB1612 F3′ TriNKET FcγRsi (bispecific antibody, Positions are EU numbers, not positions on the entries; also called AB1424/AB1612 F3′ TriNKET-Fc-si; AB1424/AB1612 F3′ TriNKET-Fc silenced) not shown heavy: EVQLVESGGGLVKPGGSLRLSCAASGFTFSSYSMNWVRQAPGKGLEWVSSISSSSSYIYYADSVKGRFTISRDNAKNSLYLQMNSLRAEDTAVYYCARGAPIGAAAGWFDPWGQGTLVTVSSASTKGPSVFPLAPSSKSTSGGTAALGCLVKDYFPEPVTVSWNSGALTSGVHTFPAVLQSSGLYSLSSVVTVPSSSLGTQTYICNVNHKPSNTKVDKKVEPKSCDKTHTCPPCPAPEAAGGPSVFLFPPKPKDTLMISRTPEVTCVVVDVSHEDPEVKFNWYVDGVEVHNAKTKPREEQYNSTYRVVSVLTVLHQDWLNGKEYKCKVSNKALGAPIEKTISKAKGQPREPQVCTLPPSRDELTENQVSLTCLVKGFYPSDIAVEWESNGQPENNYKTTPPVLDSDGSFFLYSWLTVDKSRWQQGNVFSCSVMHEALHNHYTQKSLSLSPG light: DIQMTQSPSSVSASVGDRVTITCRASQGISSWLAWYQQKPGKAPKLLIYAASSLQSGVPSRFSGSGSGTDFTLTISSLQPEDFATYYCQQGVSFPRTFGGGTKVEIKRTVAAPSVFIFPPSDEQLKSGTASVVCLLNNFYPREAKVQWKVDNALQSGNSQESVTEQDSKDSTYSLSSTLTLSKADYEKHKVYACEVTHQGLSSPVTKSFNRGEC |  | binding result (human CD16a V158): no binding |

Continued, in another order:

| Iana (drawn gate) [1] | Binder | further results |
| --- | --- | --- |
| 23.4 % (unit not printed) | AB1080scFv displayed on yeast (scFv, V domains shown, scFv on yeast) VH: EVQLVQSGGGVVQPGRSLRLSCAASGFTFSSYGMHWVRQAPGKCLEWVAVIWYDASNKYYGDSVKGRFTISRDNSKNTLYLQMNSLRDEDTAVYYCARRFTHLRGWYIEDYGLDVWGQGTTVTVSS VL: not shown |  |
| 7.4 % (unit not printed) | AB1084scFv displayed on yeast (scFv, V domains shown, scFv on yeast) VH: EVQLVQSGGGVVQPGRSLRLSCAASGFTFSMYGMHWVRQAPGKCLEWVAVIWYDASNKYYGDSVKGRFTISRDNSKNTLYLQMNSLRDEDTAVYYCARRFTRLRGWYIEDYGLDVWGQGTTVTVSS VL: not shown |  |
